± gives the uncertainty stated by the source.
B1: Far upstream element-binding protein 1, residues 98 to 169; numbered along this chain, Q96AE4 (parent)
chain: RSVMTEEYKVPDGMVGFIIGRGGEQISRIQQESGCKIQIAPDSGGLPERSCMLTGTPESVQSAKRLLDQIVE

Variants of: B1
Experiment: abundance fitness (aPCA) (normalised: wild type 0, dead -1); higher = more abundant; growth selection in yeast, the domain comes from the species named
Conditions: Homo sapiens
Work on RSVMTEEYKVPDGMVGFIIGRGGESISRIQQESGCKIQIAPDSGGLPERSCMLTGTPESVQSAKRLLDQIVE yielded an abundance fitness of -0.023 ± 0.028.
Variant RSVMTEEYKVPDGMVGFIIGRGGEVISRIQQESGCKIQIAPDSGGLPERSCMLTGTPESVQSAKRLLDQIVE has an abundance fitness of -0.07 ± 0.027.
For RSVMTEEYKVPDGMVGFIIGRGGEWISRIQQESGCKIQIAPDSGGLPERSCMLTGTPESVQSAKRLLDQIVE, the abundance fitness was -0.145 ± 0.028.
With RSVMTEEYKVPDGMVGFIIGRGGEYISRIQQESGCKIQIAPDSGGLPERSCMLTGTPESVQSAKRLLDQIVE the abundance fitness was -0.132 ± 0.046.
RSVMTEEYKVPDGMVGFIIGRGGEQASRIQQESGCKIQIAPDSGGLPERSCMLTGTPESVQSAKRLLDQIVE gave an abundance fitness of -0.132 ± 0.032.
In the case of RSVMTEEYKVPDGMVGFIIGRGGEQCSRIQQESGCKIQIAPDSGGLPERSCMLTGTPESVQSAKRLLDQIVE, the abundance fitness is reported as -0.103 ± 0.043.
RSVMTEEYKVPDGMVGFIIGRGGEQDSRIQQESGCKIQIAPDSGGLPERSCMLTGTPESVQSAKRLLDQIVE showed an abundance fitness of -0.529 ± 0.058.
With RSVMTEEYKVPDGMVGFIIGRGGEQHSRIQQESGCKIQIAPDSGGLPERSCMLTGTPESVQSAKRLLDQIVE the abundance fitness was -0.139 ± 0.054.
For RSVMTEEYKVPDGMVGFIIGRGGEQLSRIQQESGCKIQIAPDSGGLPERSCMLTGTPESVQSAKRLLDQIVE, the abundance fitness was 0.023 ± 0.029.
RSVMTEEYKVPDGMVGFIIGRGGEQMSRIQQESGCKIQIAPDSGGLPERSCMLTGTPESVQSAKRLLDQIVE gave an abundance fitness of -0.084 ± 0.036.
RSVMTEEYKVPDGMVGFIIGRGGEQPSRIQQESGCKIQIAPDSGGLPERSCMLTGTPESVQSAKRLLDQIVE showed an abundance fitness of -0.515 ± 0.044.
For RSVMTEEYKVPDGMVGFIIGRGGEQQSRIQQESGCKIQIAPDSGGLPERSCMLTGTPESVQSAKRLLDQIVE, the abundance fitness was -0.096 ± 0.035.
Variant RSVMTEEYKVPDGMVGFIIGRGGEQRSRIQQESGCKIQIAPDSGGLPERSCMLTGTPESVQSAKRLLDQIVE has an abundance fitness of -0.17 ± 0.025.
RSVMTEEYKVPDGMVGFIIGRGGEQSSRIQQESGCKIQIAPDSGGLPERSCMLTGTPESVQSAKRLLDQIVE showed an abundance fitness of -0.239 ± 0.033.
Variant RSVMTEEYKVPDGMVGFIIGRGGEQTSRIQQESGCKIQIAPDSGGLPERSCMLTGTPESVQSAKRLLDQIVE has an abundance fitness of -0.092 ± 0.039.
Variant RSVMTEEYKVPDGMVGFIIGRGGEQVSRIQQESGCKIQIAPDSGGLPERSCMLTGTPESVQSAKRLLDQIVE has an abundance fitness of -0.104 ± 0.029.
For RSVMTEEYKVPDGMVGFIIGRGGEQWSRIQQESGCKIQIAPDSGGLPERSCMLTGTPESVQSAKRLLDQIVE, the abundance fitness was -0.158 ± 0.03.
For RSVMTEEYKVPDGMVGFIIGRGGEQIARIQQESGCKIQIAPDSGGLPERSCMLTGTPESVQSAKRLLDQIVE, the abundance fitness was 0.024 ± 0.027.
Variant RSVMTEEYKVPDGMVGFIIGRGGEQICRIQQESGCKIQIAPDSGGLPERSCMLTGTPESVQSAKRLLDQIVE has an abundance fitness of -0.042 ± 0.04.
In the case of RSVMTEEYKVPDGMVGFIIGRGGEQIDRIQQESGCKIQIAPDSGGLPERSCMLTGTPESVQSAKRLLDQIVE, the abundance fitness is reported as -0.046 ± 0.041.
In the case of RSVMTEEYKVPDGMVGFIIGRGGEQIERIQQESGCKIQIAPDSGGLPERSCMLTGTPESVQSAKRLLDQIVE, the abundance fitness is reported as 0.007 ± 0.033.
RSVMTEEYKVPDGMVGFIIGRGGEQIGRIQQESGCKIQIAPDSGGLPERSCMLTGTPESVQSAKRLLDQIVE showed an abundance fitness of -0.016 ± 0.023.
For RSVMTEEYKVPDGMVGFIIGRGGEQIHRIQQESGCKIQIAPDSGGLPERSCMLTGTPESVQSAKRLLDQIVE, the abundance fitness was -0.012 ± 0.056.
RSVMTEEYKVPDGMVGFIIGRGGEQIIRIQQESGCKIQIAPDSGGLPERSCMLTGTPESVQSAKRLLDQIVE gave an abundance fitness of -0.055 ± 0.057.
Work on RSVMTEEYKVPDGMVGFIIGRGGEQIKRIQQESGCKIQIAPDSGGLPERSCMLTGTPESVQSAKRLLDQIVE yielded an abundance fitness of 0.036 ± 0.037.
Variant RSVMTEEYKVPDGMVGFIIGRGGEQILRIQQESGCKIQIAPDSGGLPERSCMLTGTPESVQSAKRLLDQIVE has an abundance fitness of -0.054 ± 0.031.
With RSVMTEEYKVPDGMVGFIIGRGGEQIMRIQQESGCKIQIAPDSGGLPERSCMLTGTPESVQSAKRLLDQIVE the abundance fitness was -0.025 ± 0.038.
For RSVMTEEYKVPDGMVGFIIGRGGEQINRIQQESGCKIQIAPDSGGLPERSCMLTGTPESVQSAKRLLDQIVE, the abundance fitness was -0.042 ± 0.051.
With RSVMTEEYKVPDGMVGFIIGRGGEQIPRIQQESGCKIQIAPDSGGLPERSCMLTGTPESVQSAKRLLDQIVE the abundance fitness was -0.198 ± 0.036.
For RSVMTEEYKVPDGMVGFIIGRGGEQIQRIQQESGCKIQIAPDSGGLPERSCMLTGTPESVQSAKRLLDQIVE, the abundance fitness was 0.027 ± 0.04.
With RSVMTEEYKVPDGMVGFIIGRGGEQIRRIQQESGCKIQIAPDSGGLPERSCMLTGTPESVQSAKRLLDQIVE the abundance fitness was 0.014 ± 0.024.
RSVMTEEYKVPDGMVGFIIGRGGEQITRIQQESGCKIQIAPDSGGLPERSCMLTGTPESVQSAKRLLDQIVE showed an abundance fitness of -0.003 ± 0.032.
Work on RSVMTEEYKVPDGMVGFIIGRGGEQIVRIQQESGCKIQIAPDSGGLPERSCMLTGTPESVQSAKRLLDQIVE yielded an abundance fitness of -0.017 ± 0.027.
Work on RSVMTEEYKVPDGMVGFIIGRGGEQIWRIQQESGCKIQIAPDSGGLPERSCMLTGTPESVQSAKRLLDQIVE yielded an abundance fitness of -0.057 ± 0.031.
Work on RSVMTEEYKVPDGMVGFIIGRGGEQIYRIQQESGCKIQIAPDSGGLPERSCMLTGTPESVQSAKRLLDQIVE yielded an abundance fitness of -0.07 ± 0.047.
For RSVMTEEYKVPDGMVGFIIGRGGEQISAIQQESGCKIQIAPDSGGLPERSCMLTGTPESVQSAKRLLDQIVE, the abundance fitness was -0.066 ± 0.028.
RSVMTEEYKVPDGMVGFIIGRGGEQISCIQQESGCKIQIAPDSGGLPERSCMLTGTPESVQSAKRLLDQIVE showed an abundance fitness of -0.109 ± 0.056.

Reference: the Human Domainome abundance scans (Beltran et al. 2025)
